{"source": "paper PMC5394133", "about": "(Clinical Drug Investigation, 2017)", "origin": "cited, not measured here", "settings": "for Maximum concentration, mean / Total exposure, mean: total insulin concentration", "note": "Read-outs that look alike come from different tables or passages of the source.", "data": [{"substance": "Insulin aspart", "values": [{"measurement": "Maximum concentration, ratio thigh/abdomen", "setting": "0.2 U/kg s.c.", "value": 84, "unit": "%"}, {"measurement": "Maximum concentration, ratio upper arm/abdomen", "setting": "0.2 U/kg s.c.", "value": 101, "unit": "%"}, {"measurement": "Total exposure, ratio thigh/abdomen", "setting": "0.2 U/kg s.c.", "value": 97, "unit": "%"}, {"measurement": "Total exposure, ratio upper arm/abdomen", "setting": "0.2 U/kg s.c.", "value": 105, "unit": "%"}, {"measurement": "Maximum concentration, mean", "setting": "0.2 U/kg s.c., abdomen", "value": 501, "unit": "pmol/L"}, {"measurement": "Total exposure, mean", "setting": "0.2 U/kg s.c., abdomen", "value": 1.3, "unit": "nM·h"}, {"measurement": "Maximum concentration, mean", "setting": "0.2 U/kg s.c., thigh", "value": 422, "unit": "pmol/L"}, {"measurement": "Total exposure, mean", "setting": "0.2 U/kg s.c., thigh", "value": 1.265, "unit": "nM·h"}, {"measurement": "Maximum concentration, mean", "setting": "0.2 U/kg s.c., upper arm", "value": 506, "unit": "pmol/L"}, {"measurement": "Total exposure, mean", "setting": "0.2 U/kg s.c., upper arm", "value": 1.361, "unit": "nM·h"}]}, {"substance": "Insulin glulisine", "values": [{"measurement": "Maximum concentration, ratio thigh/abdomen", "setting": "s.c.", "value": 68, "unit": "%"}, {"measurement": "Maximum concentration, ratio upper arm/abdomen", "setting": "s.c.", "value": 82, "unit": "%"}, {"measurement": "Total exposure, ratio thigh/abdomen", "setting": "s.c.", "value": 93, "unit": "%"}, {"measurement": "Total exposure, ratio upper arm/abdomen", "setting": "s.c.", "value": 97, "unit": "%"}, {"measurement": "early exposure within 1 h after administration, lower for the thigh than for the abdomen", "setting": "s.c.", "value": "~ 40%"}, {"measurement": "early exposure within 1 h after administration, lower for the upper arm than for the abdomen", "setting": "s.c.", "value": "~ 20%"}]}, {"substance": "Insulin lispro", "values": [{"measurement": "Maximum concentration, ratio thigh/abdomen", "setting": "0.2 U/kg s.c.", "value": 78, "unit": "%"}, {"measurement": "Maximum concentration, ratio upper arm/abdomen", "setting": "0.2 U/kg s.c.", "value": 67, "unit": "%"}, {"measurement": "Total exposure, ratio thigh/abdomen", "setting": "0.2 U/kg s.c.", "value": 92, "unit": "%"}, {"measurement": "Total exposure, ratio upper arm/abdomen", "setting": "0.2 U/kg s.c.", "value": 95, "unit": "%"}, {"measurement": "Maximum concentration, mean", "setting": "0.2 U/kg s.c., abdomen", "value": 589, "unit": "pmol/L"}, {"measurement": "Total exposure, mean", "setting": "0.2 U/kg s.c., abdomen", "value": 1.388, "unit": "nM·h"}, {"measurement": "Maximum concentration, mean", "setting": "0.2 U/kg s.c., thigh", "value": 458, "unit": "pmol/L"}, {"measurement": "Total exposure, mean", "setting": "0.2 U/kg s.c., thigh", "value": 1.277, "unit": "nM·h"}, {"measurement": "Maximum concentration, mean", "setting": "0.2 U/kg s.c., upper arm", "value": 395, "unit": "pmol/L"}, {"measurement": "Total exposure, mean", "setting": "0.2 U/kg s.c., upper arm", "value": 1.313, "unit": "nM·h"}]}]}
